Source: the supplement of paper PMC6757056
± gives the standard deviation of the averaged measurements.

B1: library; a variant is named by its letters at N, in order (parent)
chain: GCUGUCACCGAGAAACUGUGAAGUAUAUCUUAAACCUGGGCACUUAAAAGAUAUAUGGAGUUAGUAGUGCAACCUGCUCGGUCUGAUGAGUCCNNNNNNGGACGAAACAGC

Columns and labels:
[1] = variants of: B1; assay: normalized RNA/DNA level without ligand (relative to sTRSVctl = 100) (log10 (% of sTRSVctl)); HEK293T; ligand: cyclic di-GMP (c-di-GMP-II aptamer); higher = less ribozyme self-cleavage, higher mRNA level; conditions: reporter: mCherry (pCS4076), ligand present: no
Outline: (§1)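 Only sequences with at least 100 DNA reads were analyzed, from HEK293T cells transfected with 4 µg per 6-well well of ribozyme switch library plasmids 72 h before RNA extraction with EDTA. Any ligand was added 1 h before transfection. RNA level was defined as RNA over DNA reads, normalized to a spiked-in non-cleaving sequence or to the top sequences, then scaled and log-transformed. The top set was 25 sequences, and the scaling was ×100 followed by log10.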

[2] = variants of: B1; assay: normalized RNA/DNA level with ligand (relative to sTRSVctl = 100) (log10 (% of sTRSVctl)); HEK293T; ligand: cyclic di-GMP (c-di-GMP-II aptamer); ligand concentration (+) RNA-Seq: 1 mM; higher = less ribozyme self-cleavage, higher mRNA level; conditions: reporter: mCherry (pCS4076), ligand present: yes
Outline: as §1

| Variant | normalized RNA/DNA level without ligand (log10) [1] | normalized RNA/DNA level with ligand (log10) [2] |
| --- | --- | --- |
| GGCUCC | 1.88 ± 0.022 | 1.96 ± 0.11 |
| GGCUCG | 1.78 ± 0.055 | 1.87 ± 0.036 |
| CGCCCC | 1.818 ± 0.0078 | 1.9 ± 0.1 |
| CGCCCA | 1.84 ± 0.069 | 1.91 ± 0.11 |
| CGCCCU | 1.777 ± 0.0073 | 1.87 ± 0.077 |
| CGCCCG | 1.756 ± 0.0093 | 1.87 ± 0.14 |
| GGCUAC | 1.7 ± 0.023 | 1.84 ± 0.085 |
| GGCUAG | 1.5161 ± 0.00019 | 1.683 ± 0.0052 |
| GGCUAA | 1.55 ± 0.09 | 1.71 ± 0.14 |
| GGCUAU | 1.66 ± 0.048 | 1.78 ± 0.021 |
| CGCGUU | 1.67 ± 0.021 | 1.86 ± 0.12 |
| CGCGUC | 1.77 ± 0.062 | 1.88 ± 0.15 |
| CGCGUG | 1.62 ± 0.034 | 1.79 ± 0.12 |
| AGCUAA | 1.49 ± 0.02 | 1.7 ± 0.13 |
| AGCUAU | 1.7 ± 0.05 | 1.84 ± 0.12 |
| AGCUAC | 1.709 ± 0.017 | 1.81 ± 0.14 |
| AGCUAG | 1.54 ± 0.026 | 1.72 ± 0.16 |
| CGGCCG | 1.81 ± 0.035 | 1.87 ± 0.11 |
| CGGCCU | 1.74 ± 0.018 | 1.88 ± 0.11 |
| CGGCCC | 1.937 ± 0.016 | 1.94 ± 0.061 |

| Variant | normalized RNA/DNA level without ligand (log10) [1] | normalized RNA/DNA level with ligand (log10) [2] |
| --- | --- | --- |
| GGGAAC | 1.68 ± 0.031 | 1.84 ± 0.057 |
| GGGAAG | 1.63 ± 0.069 | 1.7145 ± 0.00089 |
| GGGAAA | 1.46 ± 0.14 | 1.544 ± 0.007 |
| GGGAAU | 1.6 ± 0.095 | 1.79 ± 0.14 |
| UGGAGU | 1.59 ± 0.1 | 1.76 ± 0.11 |
| UGGAGA | 1.58 ± 0.082 | 1.76 ± 0.069 |
| UGGAGG | 1.699 ± 0.0024 | 1.84 ± 0.14 |
| UGGAGC | 1.64 ± 0.062 | 1.81 ± 0.15 |
| UGGAAA | 1.626 ± 0.0078 | 1.83 ± 0.059 |
| UGGAAG | 1.68 ± 0.026 | 1.81 ± 0.17 |
| UGGACG | 1.782 ± 0.011 | 1.86 ± 0.15 |
| UGGACA | 1.712 ± 0.0091 | 1.83 ± 0.11 |
| GGGCCC | 1.92 ± 0.07 | 1.99 ± 0.056 |
| GGCCUA | 1.61 ± 0.12 | 1.83 ± 0.13 |
| GGCCUC | 1.742 ± 0.015 | 1.83 ± 0.11 |
| GGCCUU | 1.791 ± 0.013 | 1.9 ± 0.059 |
| GGCCUG | 1.82 ± 0.026 | 1.87 ± 0.19 |
| UGGCCU | 1.84 ± 0.12 | 1.97 ± 0.15 |
| UGGCCG | 1.9 ± 0.067 | 1.96 ± 0.1 |
| UGGCCA | 1.79 ± 0.029 | 1.86 ± 0.12 |

| Variant | normalized RNA/DNA level without ligand (log10) [1] | normalized RNA/DNA level with ligand (log10) [2] |
| --- | --- | --- |
| UGGCCC | 1.88 ± 0.062 | 1.96 ± 0.094 |
| GGCAUC | 1.65 ± 0.023 | 1.81 ± 0.087 |
| GGCAUA | 1.58 ± 0.11 | 1.72 ± 0.14 |
| GGCAUG | 1.68 ± 0.085 | 1.7 ± 0.081 |
| GGCAUU | 1.66 ± 0.076 | 1.82 ± 0.021 |
| CGGAAC | 1.45 ± 0.077 | 1.62 ± 0.14 |
| CGGAAG | 1.745 ± 0.015 | 1.86 ± 0.1 |
| UGCGUA | 1.6 ± 0.029 | 1.81 ± 0.1 |
| UGCGUC | 1.75 ± 0.019 | 1.85 ± 0.13 |
| UGCGUG | 1.71 ± 0.084 | 1.9 ± 0.096 |
| UGCCGG | 1.75 ± 0.04 | 1.86 ± 0.039 |
| UGCCGC | 1.774 ± 0.015 | 1.9 ± 0.049 |
| UGCCGA | 1.626 ± 0.012 | 1.79 ± 0.12 |
| UGCCGU | 1.66 ± 0.013 | 1.83 ± 0.12 |
| GGCCAG | 1.74 ± 0.0068 | 1.85 ± 0.025 |
| GGCCAU | 1.73 ± 0.03 | 1.84 ± 0.1 |
| GGCCAC | 1.7289 ± 0.0006 | 1.88 ± 0.083 |
| GGCCAA | 1.638 ± 0.01 | 1.74 ± 0.1 |
